Earlier results in publication PMC11083953.

Tests used:
CD20 (Homo sapiens) = CD20 (Homo sapiens) (UniProt P11836)
CD38 (Homo sapiens) = CD38 (Homo sapiens) (UniProt P28907)

CD20 (Homo sapiens), sequence (P11836 whole entry): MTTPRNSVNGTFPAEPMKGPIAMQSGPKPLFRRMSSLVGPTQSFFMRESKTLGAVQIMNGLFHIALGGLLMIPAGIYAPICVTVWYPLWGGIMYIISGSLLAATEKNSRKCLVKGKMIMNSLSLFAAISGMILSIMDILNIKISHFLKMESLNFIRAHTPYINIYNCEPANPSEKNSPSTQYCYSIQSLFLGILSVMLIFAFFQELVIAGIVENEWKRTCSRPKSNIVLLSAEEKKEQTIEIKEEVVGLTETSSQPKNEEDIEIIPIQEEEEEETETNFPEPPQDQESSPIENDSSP

Kd (CD38 (Homo sapiens))	Substance	Kd (CD20 (Homo sapiens))
	rituximab	8 nM
4.36 nM	daratumumab	
